Data as given in IntAct's records for PubMed 8174709.

B1: Ferredoxin--NADP reductase, chloroplastic (Spinacia oleracea (Spinach)), P00455 (parent)
chain: MTTAVTAAVSFPSTKTTSLSARSSSVISPDKISYKKVPLYYRNVSATGKMGPIRAQIASDVEAPPPAPAKVEKHSKKMEEGITVNKFKPKTPYVGRCLLNTKITGDDAPGETWHMVFSHEGEIPYREGQSVGVIPDGEDKNGKPHKLRLYSIASSALGDFGDAKSVSLCVKRLIYTNDAGETIKGVCSNFLCDLKPGAEVKLTGPVGKEMLMPKDPNATIIMLGTGTGIAPFRSFLWKMFFEKHDDYKFNGLAWLFLGVPTSSSLLYKEEFEKMKEKAPDNFRLDFAVSREQTNEKGEKMYIQTRMAQYAVELWEMLKKDNTYFYMCGLKGMEKGIDDIMVSLAAAEGIDWIEYKRQLKKAEQWNVEVY

Variants of: B1
Conditions: with fer1_spiol PETF

| effect of a mutation on the interaction | Variant |
| --- | --- |
| decreasing interaction | K88Q |
